Data from article PMC9507012 (Blood, 2022).
Values joined by “and” are separate entries in the source; they are usually repeats but may differ in a detail not shown here. Identical values can stand only once.

Biological target: the molecule itself
Test: crystal structure

B1: MEF2D_(2-95) (N-terminal residues 2-95 of human MEF2D) (domain or fragment, UniProt Q14814 2-95, looked up)
chain: GRKKIQIQRITDERNRQVTFTKRKFGLMKKAYELSVLCDCEIALIIFNHSNKLFQYASTDMDKVLLKYTEYNEPHESRTNADIIETLRKKGFNG
  stoichiometry N: 2 and 4
